# Experimental data published in publication PMC9896810, “Crk proteins activate the Rap1 guanine nucleotide exchange factor C3G by segregated adaptor-dependent and -independent mechanisms” (Cell Communication and Signaling : CCS, 2023).
# Positions count from the first letter of the chain named. Numbers in names are those of the source. No end group written: not given here. fluorescein = N-terminal fluorescein probe
# B1: C3G-APAA (natural protein)
# chain: DSQRSHLSSFTMKLMDKFHSPKIKRTPSKKGKPAEVSVKIPEKPVNKEATDRFLPEGYPLPLDLEQQAVEFMSTSAVASRSQRQKNLSWLEEKEKEVVSALRYFKTIVDKMAIDKKVLEMLPGSASKVLEAILPLVQNDPRIQHSSALSSCYSRVYQSLANLIRWSDQVMLEGVNSEDKEMVTTVKGVIKAVLDGVKELVRLTIEKQGRPSPTSPVKPSSPASKPDGPAELPLTDREVEILNKTTGMSQSTELLPDATDEEVAPPKPPLPGIRVVDNSPAAAAAPAKRQSAPSPTRVAVVAPMSRATSGSSLPVGINRQDFDVDCYAQRRLSGGSHSYGGESPRLSPCSSIGKLSKSDEQLSSLDRDSGQCSRNTSCETLDHYDPDYEFLQQDLSNADQIPQQTAWNLSPLPESLGESGSPFLGPPFQLPLGGHPQPDGPLAPGQQTDTPPALPEKKRRSAASQTADGSGCRVSYERHPSQYDNISGEDLQSTAPIPSVPYAPFAAILPFQHGGSSAPVEFVGDFTAPESTGDPEKAAPAAEAKNKHMLAYMQLLEDYSEPQPSMFYQTPQNEHIYQQKNKLLMEVYGFSDSFSGVDSVQELAPAAAAAPAQRQLEPPAGKDGHPRDPSAVSGVPGKDSRDGSERAPKSPDALESAQSEEEVDELSLIDHNEIMSRLTLKQEGDDGPDVRGGSGDILLVHATETDRKDLVLYCEAFLTTYRTFISPEELIKKLQYRYEKFSPFADTFKKRVSKNTFFVLVRVVDELCLVELTEEILKLLMELVFRLVCNGELSLARVLRKNILDKVDQKKLLRCATSSQPLAARGVAARPGTLHDFHSHEIAEQLTLLDAELFYKIEIPEVLLWAKEQNEEKSPNLTQFTEHFNNMSYWVRSIIMLQEKAQDRERLLLKFIKIMKHLRKLNNFNSYLAILSALDSAPIRRLEWQKQTSEGLAEYCTLIDSSSSFRAYRAALSEVEPPCIPYLGLILQDLTFVHLGNPDYIDGKVNFSKRWQQFNILDSMRCFQQAHYDMRRNDDIINFFNDFSDHLAEEALWELSLKIKPRNITRRKTDREEKT
# B2: CrkL-SH3N (residues 125-182) (domain or fragment, human, UniProt P46109 125-182, looked up)
# chain: LEYVRTLYDFPGNDAEDLPFKKGEILVIIEKPEEQWWSARNKDGRVGMIPVPYVEKLV
# notes: human CrkL, SH3N domain, residues 125-182, in pETEV15b; also called SH3N domain of CrkL; isolated SH3N domain; source: E. coli BL21 (DE3), purified (His-tagged, purified in a similar manner as C3G)
# B3: C3G P1 peptide (residues 280-293), fluorescein-labeled (peptide, UniProt Q13905-1 280-293, looked up)
# peptide: fluorescein-NSPPPALPPKKRQS
# notes: Pro-rich motif P1 of human C3G, residues 280-293; source: synthetic peptide (custom synthesized, Thermo Scientific)
# B4: CrkL, full-length (human) (natural protein, UniProt P46109 1-303, looked up)
# chain: MSSARFDSSDRSAWYMGPVSRQEAQTRLQGQRHGMFLVRDSSTCPGDYVLSVSENSRVSHYIINSLPNRRFKIGDQEFDHLPALLEFYKIHYLDTTTLIEPAPRYPSPPMGSVSAPNLPTAEDNLEYVRTLYDFPGNDAEDLPFKKGEILVIIEKPEEQWWSARNKDGRVGMIPVPYVEKLVRSSPHGKHGNRNSNSYGIPEPAHAYAQPQTTTPLPAVSGSPGAAITPLPSTQNGPVFAKAIQKRVPCAYDKTALALEVGDIVKVTRMNINGQWEGEVNGRKGLFPFTHVKIFDPQNPDENE
# notes: Monomer by sedimentation velocity and DLS (theoretical mass 33.7 kDa); Purification 'in a similar manner' as C3G would include TEV cleavage of the tag; also called Crk-like protein; wild type CrkL; source: E. coli BL21 (DE3), purified (His-tagged, purified in a similar manner as C3G)
# B5: GST-CrkL R39K (natural protein, human, UniProt P46109 1-303, looked up)
# chain: B4 chain with R39K
# notes: human CrkL, full-length, R39K; the results print 'R93K alone', the methods and the sentence before print R39K; also called R93K; source: E. coli BL21 (DE3), purified GST fusion
# Columns and labels:
# [1] = target: B4; test: ITC; single-PRM mutants of C3G in the cell titrated with full-length CrkL or CrkL-SH3N; 25 °C; 1:1 model in SEDPHAT; N is the competent fraction of C3G; settings: both partners purified
# C3G-AAPA-Y554H = C3G-AAPA-Y554H (human, UniProt Q13905-1 4-1077, Y554H); test: as above; settings: both partners purified
# [2] = target: T1, Src-phosphorylated C3G-AAPA (pC3G-AAPA) (human, UniProt Q13905-1 4-1077, phosphotyrosines (phosphorylated in vitro by Src; sites not stated)); test: as above; settings: both partners purified
# T1 chain: B1 chain with P450A, P451A, L453A, P454A, K456A, A537P, A538P, A540L, A541P, A543K
# [3] = target: T2, C3G full-length wild type (human, isoform a, residues 4-1077) (human, UniProt Q13905-1 4-1077); test: cell-based or functional assay
# T2 sequence (looked up): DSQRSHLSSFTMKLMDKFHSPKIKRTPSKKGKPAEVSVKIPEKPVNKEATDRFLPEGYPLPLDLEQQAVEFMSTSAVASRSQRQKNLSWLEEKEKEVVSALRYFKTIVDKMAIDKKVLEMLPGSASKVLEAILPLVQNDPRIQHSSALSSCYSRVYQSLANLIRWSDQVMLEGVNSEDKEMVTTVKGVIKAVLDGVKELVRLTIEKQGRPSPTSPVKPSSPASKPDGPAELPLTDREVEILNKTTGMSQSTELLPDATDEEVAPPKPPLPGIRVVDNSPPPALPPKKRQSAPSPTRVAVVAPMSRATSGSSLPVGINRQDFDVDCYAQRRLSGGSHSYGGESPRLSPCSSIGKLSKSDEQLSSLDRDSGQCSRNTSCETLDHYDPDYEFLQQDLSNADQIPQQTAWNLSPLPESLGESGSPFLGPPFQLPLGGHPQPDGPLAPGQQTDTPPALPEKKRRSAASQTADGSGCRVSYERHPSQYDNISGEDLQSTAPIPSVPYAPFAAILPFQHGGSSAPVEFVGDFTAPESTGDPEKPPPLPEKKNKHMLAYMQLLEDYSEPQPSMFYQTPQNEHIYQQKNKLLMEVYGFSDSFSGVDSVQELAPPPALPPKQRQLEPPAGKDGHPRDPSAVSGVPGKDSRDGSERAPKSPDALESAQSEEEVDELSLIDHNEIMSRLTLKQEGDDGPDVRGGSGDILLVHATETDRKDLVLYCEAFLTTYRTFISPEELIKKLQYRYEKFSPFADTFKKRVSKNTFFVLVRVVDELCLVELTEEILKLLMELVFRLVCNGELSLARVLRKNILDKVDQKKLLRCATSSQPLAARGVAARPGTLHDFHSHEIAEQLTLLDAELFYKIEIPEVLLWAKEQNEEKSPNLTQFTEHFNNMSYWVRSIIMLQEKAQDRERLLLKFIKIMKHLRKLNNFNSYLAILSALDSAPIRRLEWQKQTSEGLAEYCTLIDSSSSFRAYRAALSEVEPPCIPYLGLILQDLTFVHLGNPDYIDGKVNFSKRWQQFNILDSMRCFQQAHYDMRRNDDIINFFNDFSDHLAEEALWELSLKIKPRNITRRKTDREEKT
# [4] = target: T3, Src-phosphorylated C3G (pC3G), wild type (human, UniProt Q13905-1 4-1077, phosphotyrosines (phosphorylated in vitro by Src; sites not stated)); test: cell-based or functional assay
# T3 sequence (looked up): T2 sequence (looked up)
# [5] = target: B4; test: fluorescence polarisation; fluorescein peptides at 0.2 µM titrated with CrkL; 20 mM Tris-HCl, 150 mM NaCl, pH 7.5, 0.1 mg/ml BSA; 1:1 model; apparent kd; settings: both partners purified
# [6] = target: T2, C3G full-length wild type (human, …); test: AUC; sedimentation velocity of C3G with increasing CrkL; 20 mM Tris-HCl, 300 mM NaCl, pH 7.5, 20 °C, 48,000 rpm; isotherms fitted with three symmetric sites (Gilbert-Jenkins), microscopic kd; settings: both partners purified
# [7] = target: T3, Src-phosphorylated C3G (pC3G), wild type; test: cell-based or functional assay; remark: listed apart in the source
# [8] = target: T2, C3G full-length wild type (human, …); test: ITC; C3G in the cell titrated with CrkL; 25 °C; 300 mM NaCl, pH 7.5 (Tris-HCl or Na-phosphate); three titrations fitted one by one, independent-site model (MicroCal Origin); settings: both partners purified
# [9] = target: T2, C3G full-length wild type (human, …); test: ITC; same three titrations of C3G with CrkL, global fit in SEDPHAT, three symmetric binding sites, microscopic kd; settings: both partners purified
# [10] = target: T3, Src-phosphorylated C3G (pC3G), wild type; test: ITC; full-length C3G or pC3G in the cell titrated with CrkL, CrkL fragments, CrkL-W160S or CrkII; 25 °C; 300 mM NaCl, pH 7.5; parameters in Table S11; settings: both partners purified
# [11] = target: T3, Src-phosphorylated C3G (pC3G), wild type; test: pull-down; 30 µg GST-CrkL (full-length or SH3N) with 30 µg C3G on glutathione-agarose; 20 mM Tris-HCl, 150 mM NaCl, pH 7.5, 0.01% BSA; 30 min, 4 °C; washes with 0.1% Triton X-100; coomassie or western blot; settings: both partners purified
binder,measurement,setting,value
B1,Kd,[1],~1 µM
B2,Kd,C3G-AAPA-Y554H,0.8 µM
same,stoichiometry N,C3G-AAPA-Y554H,~0.5 molecules of SH3N per molecule of C3G-AAPA-Y554H
same,stoichiometry N,[2],~0.1
same,AC50 of the dose-response activation of the GEF activity of C3G (1 µM) on Rap1b:mant-dGDP,[3],26.8 µM
same,kmax of the dose-response activation of the GEF activity of C3G (1 µM) on Rap1b:mant-dGDP,[3],6300 M⁻¹ s⁻¹
same,AC50 of the dose-response activation of the GEF activity of pC3G (0.2 µM) on Rap1b:mant-dGDP,[4],12.8 µM
same,kmax of the dose-response activation of the GEF activity of pC3G (0.2 µM) on Rap1b:mant-dGDP,[4],0.0139 s^-1 µM^-1
B3,binding result,[5],binds
B4,Kd,[6],1.4 µM
same,koff,[6],> 0.001 s⁻¹
same,"GEF activity of pC3G (0.2 µM) on Rap1b:mant-dGDP with 5 µM CrkL, fold over pC3G alone",[7],~9 fold
same,Kd,[8],2.8 to 3.6 µM
same,stoichiometry N,[8],~3 molecules of CrkL per molecule of C3G
same,Kd,[9],2.3 µM
same,AC50 of the dose-response activation of the GEF activity of C3G (1 µM) on Rap1b:mant-dGDP,[3],22.4 µM
same,kmax of the dose-response activation of the GEF activity of C3G (1 µM) on Rap1b:mant-dGDP,[3],13400 M⁻¹ s⁻¹
same,AC50 of the dose-response activation of the GEF activity of pC3G (0.2 µM) on Rap1b:mant-dGDP,[4],1.7 µM
same,kmax of the dose-response activation of the GEF activity of pC3G (0.2 µM) on Rap1b:mant-dGDP,[4],0.0342 s^-1 µM^-1
same,Kd,[10],1.3 µM
B5,binding result,[11],binds
